Measurements: US20060253917A1 (published 2006)

B1: OsMADS6 aa 50-200 (other)
chain: SRGKLYEFGSAGITKTLERYQHCCYNAQDSNNALSETQSWYHEMSKLKAKFEALQRTQRHLLGEDLGPLSVKELQQLEKQLECALSQARQRKTQLMMEQVEELRRKERQLGEINRQLKHKLEVEGSTSNYRAMQQASWAQGAVVENGAAYV
notes: bait, Gal4 DBD fusion; also called PN20233
B6: OsMADS3 aa 70-170 (other)
chain: KKANSDTSNSGTVAEVNAQHYQQESSKLRQQISSLQNANSRTIVGDSINTMSLRDLKQVENRLEKGIAKIRARKNELLYAEVEYMQKREVELQNDNMYLRS
notes: bait, Gal4 DBD fusion; also called PN20700

Columns and labels:
[1] = target: T1, OsRAP1B aa 1-179 (Oryza sativa, UniProt Q10CQ1 1-179); assay: Y2H; output trait library
T1 construct: prey, AD fusion; also called PN20232
T1 sequence: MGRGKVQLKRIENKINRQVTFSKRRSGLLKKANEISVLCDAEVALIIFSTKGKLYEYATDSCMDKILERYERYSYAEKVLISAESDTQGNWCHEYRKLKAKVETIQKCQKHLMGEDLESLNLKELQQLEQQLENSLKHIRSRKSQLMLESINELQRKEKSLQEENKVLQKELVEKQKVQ
How it was run: (§1)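 Using an automated, high-throughput yeast two-hybrid assay provided by Myriad Genetics Inc. (Salt Lake City, Utah), protein-protein interactions were detected. Against either the input trait or the output trait rice prey library, a bait clone encoding a defined amino-acid fragment of a rice protein was screened. The encoding sequences of the prey clones that were retrieved were then compared against databases by BLAST to identify the interacting proteins.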

[2] = target: T2, OsMADS8 aa 79-248 (Oryza sativa, UniProt Q9SAR1 79-248); assay: Y2H; output trait library
T2 construct: prey, AD fusion; also called PN20778
T2 sequence: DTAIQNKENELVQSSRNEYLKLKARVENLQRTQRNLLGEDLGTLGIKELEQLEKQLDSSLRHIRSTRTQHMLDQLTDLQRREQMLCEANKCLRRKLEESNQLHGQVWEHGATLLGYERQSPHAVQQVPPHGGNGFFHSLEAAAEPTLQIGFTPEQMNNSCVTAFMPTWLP
How it was run: as §1

[3] = target: T3, OsMADS1 aa 70-257 (Oryza sativa, UniProt A2XDY1 70-257); assay: Y2H; output trait library
T3 construct: prey, AD fusion; also called PN19788
T3 sequence: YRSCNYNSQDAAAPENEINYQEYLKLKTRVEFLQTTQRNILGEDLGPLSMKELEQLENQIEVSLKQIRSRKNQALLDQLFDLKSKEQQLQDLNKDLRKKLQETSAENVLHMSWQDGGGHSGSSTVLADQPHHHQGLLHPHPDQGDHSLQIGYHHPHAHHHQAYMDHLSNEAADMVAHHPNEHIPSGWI
How it was run: as §1

[4] = target: T4, OsMADS8 aa 75-238 (Oryza sativa, UniProt Q9SAR1 75-238); assay: Y2H; output trait library
T4 construct: prey, AD fusion; also called PN20778
T4 sequence: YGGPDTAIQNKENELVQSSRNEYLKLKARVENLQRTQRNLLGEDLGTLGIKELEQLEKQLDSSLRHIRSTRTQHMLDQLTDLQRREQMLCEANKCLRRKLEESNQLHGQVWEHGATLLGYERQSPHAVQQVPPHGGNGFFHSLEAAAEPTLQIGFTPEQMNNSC
How it was run: as §1

[5] = target: T5, OsMADS45 aa 83-234 (Oryza sativa, UniProt P0C5B0 83-234); assay: Y2H; output trait library
T5 construct: prey, AD fusion; also called PN20231
T5 sequence: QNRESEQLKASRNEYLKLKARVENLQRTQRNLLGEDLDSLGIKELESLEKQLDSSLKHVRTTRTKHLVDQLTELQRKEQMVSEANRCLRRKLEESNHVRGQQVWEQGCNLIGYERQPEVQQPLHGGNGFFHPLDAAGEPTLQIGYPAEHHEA
How it was run: as §1

[6] = target: B1; assay: Y2H; input trait library
How it was run: as §1

[7] = target: B6; assay: Y2H; input trait library
How it was run: as §1

[8] = target: T6, OsMADS1 aa 74-172 (Oryza sativa, UniProt A2XDY1 74-172); assay: Y2H; input trait library
T6 construct: prey, AD fusion; also called PN19788
T6 sequence: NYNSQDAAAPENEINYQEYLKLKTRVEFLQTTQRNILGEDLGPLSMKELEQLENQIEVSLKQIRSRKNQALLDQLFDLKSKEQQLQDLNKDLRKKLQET
How it was run: as §1

[9] = target: T7, OsMADS1 aa 95-254 (Oryza sativa, UniProt A2XDY1 95-254); assay: Y2H; input trait library
T7 construct: prey, AD fusion; also called PN19788
T7 sequence: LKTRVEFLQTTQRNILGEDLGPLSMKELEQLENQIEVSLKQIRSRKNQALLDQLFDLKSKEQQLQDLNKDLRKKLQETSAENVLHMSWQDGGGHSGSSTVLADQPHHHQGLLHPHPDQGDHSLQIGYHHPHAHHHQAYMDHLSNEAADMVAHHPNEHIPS
How it was run: as §1

[10] = target: T8, OsMADS45 aa 120-249 (Oryza sativa, UniProt P0C5B0 120-249); assay: Y2H; output trait library
T8 construct: prey, AD fusion; also called PN20231
T8 sequence: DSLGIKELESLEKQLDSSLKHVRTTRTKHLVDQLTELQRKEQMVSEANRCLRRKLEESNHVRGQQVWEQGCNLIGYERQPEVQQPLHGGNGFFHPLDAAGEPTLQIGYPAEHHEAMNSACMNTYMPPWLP
How it was run: as §1

[11] = target: T9, OsFDRMADS6 aa 74-246 (Oryza sativa, UniProt P0C5B1 74-246); assay: Y2H; output trait library
T9 construct: prey, AD fusion; also called PN19766
T9 sequence: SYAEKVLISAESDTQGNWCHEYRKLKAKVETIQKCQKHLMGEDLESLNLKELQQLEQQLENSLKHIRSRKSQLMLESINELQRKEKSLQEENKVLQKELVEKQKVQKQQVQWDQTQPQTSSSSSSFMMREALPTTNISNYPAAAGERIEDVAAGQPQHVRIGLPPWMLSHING
How it was run: as §1

[12] = target: T10, OsMADS17 aa 51-248 (Oryza sativa, UniProt Q7XUN2 51-248); assay: Y2H; output trait library
T10 construct: prey, AD fusion; also called PN20914
T10 sequence: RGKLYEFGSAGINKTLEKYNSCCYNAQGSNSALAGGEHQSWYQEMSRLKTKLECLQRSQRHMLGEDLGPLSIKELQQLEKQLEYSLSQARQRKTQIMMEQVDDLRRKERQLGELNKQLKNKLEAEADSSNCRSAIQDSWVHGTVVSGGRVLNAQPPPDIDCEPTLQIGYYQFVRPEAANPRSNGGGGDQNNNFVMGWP
How it was run: as §1

[13] = target: T11, OsMADS8 aa 6-159 (Oryza sativa, UniProt Q9SAR1 6-159); assay: Y2H; output trait library
T11 construct: prey, AD fusion; also called PN20778
T11 sequence: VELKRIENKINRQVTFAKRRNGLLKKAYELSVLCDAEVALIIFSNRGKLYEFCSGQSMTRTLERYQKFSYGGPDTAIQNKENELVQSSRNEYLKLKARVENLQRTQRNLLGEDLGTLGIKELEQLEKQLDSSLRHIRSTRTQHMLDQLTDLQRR
How it was run: as §1

[14] = target: T12, OsMADS45 aa 2-214 (Oryza sativa, UniProt P0C5B0 2-214); assay: Y2H; output trait library
T12 construct: prey, AD fusion; also called PN20231
T12 sequence: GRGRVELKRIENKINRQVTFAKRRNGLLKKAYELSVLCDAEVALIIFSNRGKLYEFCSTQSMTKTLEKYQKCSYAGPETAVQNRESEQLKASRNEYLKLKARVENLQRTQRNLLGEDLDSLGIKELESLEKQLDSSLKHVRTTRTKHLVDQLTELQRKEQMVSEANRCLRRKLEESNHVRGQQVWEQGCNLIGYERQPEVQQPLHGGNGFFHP
How it was run: as §1

[15] = target: T13, OsMADS45 aa 57-249 (Oryza sativa, UniProt P0C5B0 57-249); assay: Y2H; output trait library
T13 construct: prey, AD fusion; also called PN20231
T13 sequence: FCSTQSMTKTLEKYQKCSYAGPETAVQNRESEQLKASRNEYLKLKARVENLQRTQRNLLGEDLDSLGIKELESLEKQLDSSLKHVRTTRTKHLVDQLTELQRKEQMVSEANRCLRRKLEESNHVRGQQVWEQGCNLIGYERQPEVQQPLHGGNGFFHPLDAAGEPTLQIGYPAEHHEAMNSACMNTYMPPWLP
How it was run: as §1

[16] = target: T14, OsMADS8 aa 68-245 (Oryza sativa, UniProt Q9SAR1 68-245); assay: Y2H; output trait library
T14 construct: prey, AD fusion; also called PN20778
T14 sequence: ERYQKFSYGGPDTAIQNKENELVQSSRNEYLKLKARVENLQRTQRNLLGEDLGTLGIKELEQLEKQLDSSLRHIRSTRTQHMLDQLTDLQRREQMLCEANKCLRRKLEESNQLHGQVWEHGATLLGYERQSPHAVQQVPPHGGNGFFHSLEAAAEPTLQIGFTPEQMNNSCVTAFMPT
How it was run: as §1

[17] = target: T15, OsMADS8 aa 61-248 (Oryza sativa, UniProt Q9SAR1 61-248); assay: Y2H; input trait library
T15 construct: prey, AD fusion; also called PN20778
T15 sequence: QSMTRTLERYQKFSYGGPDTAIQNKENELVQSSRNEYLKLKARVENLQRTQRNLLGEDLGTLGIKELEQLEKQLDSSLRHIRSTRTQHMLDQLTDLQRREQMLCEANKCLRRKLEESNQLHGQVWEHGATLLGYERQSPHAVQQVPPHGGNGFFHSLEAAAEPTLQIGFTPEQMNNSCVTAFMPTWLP
How it was run: as §1

[18] = target: T16, OsMADS45 aa 48-249 (Oryza sativa, UniProt P0C5B0 48-249); assay: Y2H; input trait library
T16 construct: prey, AD fusion; also called PN20231
T16 sequence: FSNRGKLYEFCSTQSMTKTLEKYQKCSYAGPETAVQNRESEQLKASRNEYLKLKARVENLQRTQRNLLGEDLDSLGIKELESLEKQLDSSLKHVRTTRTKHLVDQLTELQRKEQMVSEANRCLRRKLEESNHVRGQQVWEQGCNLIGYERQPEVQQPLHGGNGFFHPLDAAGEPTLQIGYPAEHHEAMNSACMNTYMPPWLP
How it was run: as §1

[19] = target: T17, OsMADS45 aa 56-249 (Oryza sativa, UniProt P0C5B0 56-249); assay: Y2H; output trait library
T17 construct: prey, AD fusion; also called PN20231
T17 sequence: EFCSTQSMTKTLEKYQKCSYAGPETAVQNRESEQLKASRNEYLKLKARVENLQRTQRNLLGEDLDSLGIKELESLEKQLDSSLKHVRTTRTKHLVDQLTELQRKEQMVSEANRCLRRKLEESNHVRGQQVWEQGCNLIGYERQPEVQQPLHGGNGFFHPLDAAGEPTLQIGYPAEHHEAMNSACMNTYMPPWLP
How it was run: as §1

Binder: B1
- binding result [1]: binds
- binding result [2]: binds
- binding result [3]: binds
- binding result [4]: binds
- binding result [5]: binds

B2: OsRAP1B aa 1-188 (other)
chain: MGRGKVQLKRIENKINRQVTFSKRRSGLLKKANEISVLCDAEVALIIFSTKGKLYEYATDSCMDKILERYERYSYAEKVLISAESDTQGNWCHEYRKLKAKVETIQKCQKHLMGEDLESLNLKELQQLEQQLENSLKHIRSRKSQLMLESINELQRKEKSLQEENKVLQKELVEKQKVQKQQLQWDQT
notes: prey, AD fusion; also called PN20232
- binding result [6]: binds

B3: OsPN31165 aa 58-252 (other)
chain: YAREMERLSAKESLLLAFRDAGGFESLVSGKTTGMQKIDVNERIVGLERLNPTPRPTTSPFLEGRWNFEWFGDSSPGALAARLLFERSPTTVAHFTGLDVLIKDGYSKISSNVKFLNTVQSKFLLTTQLSVEGPIRMKEEYVEGLIEIPRIREETLPDQLKGFFGQTAGALQQLPAPIRDAVSEGIKLPLNGMFQ
notes: prey, AD fusion; also called Novel protein PN31165
- binding result [7]: binds

B4: OsMADS15 aa 100-235 (other)
chain: AKIETIQKCHKHLMGEDHESLNLKELQQLEQQLESSLKHIISRKSHLMLESISELQKKERSLQEENKALQKELVERQKNVRGQQQVGQWDQTQVQAQAQAQPQAQTSSSSSSMLRDQQALLPPQNICYPPVMMGER
notes: bait, Gal4 DBD fusion; also called PN20842
- binding result [8]: binds
- binding result [9]: binds
- binding result [10]: binds

B5: OsMADS5 aa 50-160 (other)
chain: TRGRLFEFSTSSCMYKTLERYRSCNYNLNSCEASAALETELSNYQEYLKLKTRVEFLQTTQRNLLGEDLVPLSLKELEQLENQIEISLMNIRSSKNQQLLDQVFELKRKEQ
notes: bait, Gal4 DBD fusion; also called PN20770
- binding result [11]: binds
- binding result [12]: binds

Binder: B6
- binding result [13]: binds
- binding result [14]: binds
- binding result [15]: binds
- binding result [16]: binds
- binding result [17]: binds
- binding result [18]: binds

B7: OsFDRMADS8 aa 60-160 (other)
chain: APSLQKTIDRYKAYTKDHVNNKTIQQDIQQVKDDTLGLAKKLEALDESRRKILGENLEGCSIEELRGLEMKLEKSLHNIRLKKTELLERQIAKLKEKERTL
notes: bait, Gal4 DBD fusion; also called PN20698
- binding result [19]: binds
